Tested on: Escherichia coli TOP10
Assay: shrunken log2 fold change of peptide-encoding DNA abundance (4.5 h post-induction vs induction); higher = less antimicrobial activity (less host growth inhibition)
Conditions: time post-induction: 4.5 h; library: site-saturation at positions 5, 18, 19, 20
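Further: peptides expressed intracellularly from a pBAD plasmid library in pooled LB shake-flask culture, induced with 0.3% L-arabinose, DNA abundance read by NGS, three biological replicates, DESeq2 with apeglm shrinkage.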

Sequence	shrunken log2 fold change
RRIRDRPPRLPRPRPRPKRGPRP	0.0777
RRIRQRPPRLPRPRPRPQTEPRP	-0.128
RRIRPRPPRLPRPRPRPHADPRP	-0.161
RRIRRRPPRLPRPRPRPCMPPRP	-0.301
RRIRRRPPRLPRPRPRPIKEPRP	0.0124
RRIRYRPPRLPRPRPRPGVFPRP	-0.0987
RRIRHRPPRLPRPRPRPWVIPRP	0.00302
RRIRFRPPRLPRPRPRPDWCPRP	-0.00301
RRIRDRPPRLPRPRPRPLQPPRP	0.467
RRIRYRPPRLPRPRPRPCKFPRP	-0.931
RRIRYRPPRLPRPRPRPNMTPRP	-0.00766
RRIRRRPPRLPRPRPRPRNTPRP	0.436
RRIRIRPPRLPRPRPRPVCLPRP	-0.369
RRIRDRPPRLPRPRPRPFHMPRP	0.0426
RRIRVRPPRLPRPRPRPRRKPRP	0.0637
RRIRFRPPRLPRPRPRPFICPRP	-0.65
RRIRMRPPRLPRPRPRPQAYPRP	-0.0933
RRIRPRPPRLPRPRPRPSYYPRP	-0.721
RRIRVRPPRLPRPRPRPHENPRP	-0.38
RRIRARPPRLPRPRPRPNAAPRP	1.13
RRIRIRPPRLPRPRPRPIEAPRP	-0.01
RRIRCRPPRLPRPRPRPPDWPRP	0.416
RRIRMRPPRLPRPRPRPKEWPRP	0.0859
RRIRYRPPRLPRPRPRPICHPRP	-0.305
RRIRERPPRLPRPRPRPLFNPRP	-0.62

Sequence	shrunken log2 fold change
RRIRPRPPRLPRPRPRPNFGPRP	0.26
RRIRHRPPRLPRPRPRPKIPPRP	-0.254
RRIRRRPPRLPRPRPRPELLPRP	0.147
RRIRLRPPRLPRPRPRPREMPRP	0.149
RRIRGRPPRLPRPRPRPERGPRP	1.72
RRIRRRPPRLPRPRPRPGRGPRP	0.805
RRIRCRPPRLPRPRPRPVFHPRP	-0.262
RRIRHRPPRLPRPRPRPCVPPRP	-0.00981
RRIRHRPPRLPRPRPRPPNQPRP	-0.0151
RRIRARPPRLPRPRPRPQMTPRP	0.0889
RRIRIRPPRLPRPRPRPSPMPRP	-0.2
RRIRGRPPRLPRPRPRPHLYPRP	0.155
RRIRYRPPRLPRPRPRPNPWPRP	-0.189
RRIRFRPPRLPRPRPRPCMNPRP	0.0346
RRIRLRPPRLPRPRPRPVNLPRP	0.0275
RRIRPRPPRLPRPRPRPLPVPRP	-0.4
RRIRIRPPRLPRPRPRPNIIPRP	-0.719
RRIRVRPPRLPRPRPRPTGWPRP	0.377
RRIRYRPPRLPRPRPRPHDKPRP	-0.661
RRIRDRPPRLPRPRPRPYFQPRP	-0.236
RRIRYRPPRLPRPRPRPMAIPRP	-0.0433
RRIRQRPPRLPRPRPRPMWPPRP	0.269
RRIRVRPPRLPRPRPRPRPQPRP	0.365
RRIRARPPRLPRPRPRPKYNPRP	-0.411
RRIRVRPPRLPRPRPRPWLDPRP	0.183

Sequence	shrunken log2 fold change
RRIRTRPPRLPRPRPRPAKFPRP	-0.00176
RRIRYRPPRLPRPRPRPTCSPRP	-0.0789
RRIRTRPPRLPRPRPRPGHRPRP	-0.216
RRIRCRPPRLPRPRPRPVYIPRP	-0.756
RRIRKRPPRLPRPRPRPSDKPRP	-0.41
RRIRQRPPRLPRPRPRPRKMPRP	-0.0294
RRIRLRPPRLPRPRPRPMEEPRP	0.156
RRIRYRPPRLPRPRPRPMWIPRP	-0.526
RRIRRRPPRLPRPRPRPNPLPRP	0.269
RRIRKRPPRLPRPRPRPPPVPRP	0.751
RRIRYRPPRLPRPRPRPHEWPRP	-0.0416
RRIRARPPRLPRPRPRPANNPRP	-0.0617
RRIRQRPPRLPRPRPRPKHVPRP	-0.067
RRIRHRPPRLPRPRPRPGTEPRP	-0.0642
RRIRKRPPRLPRPRPRPHIEPRP	-0.891
RRIRQRPPRLPRPRPRPPTNPRP	0.201
RRIRYRPPRLPRPRPRPKWDPRP	-0.46
RRIRRRPPRLPRPRPRPYDVPRP	-0.0964
RRIRDRPPRLPRPRPRPADHPRP	-0.0509
RRIRCRPPRLPRPRPRPMAPPRP	0.219
RRIRYRPPRLPRPRPRPRTYPRP	-0.71
RRIRIRPPRLPRPRPRPEMIPRP	-0.0257
RRIRGRPPRLPRPRPRPARTPRP	0.545
RRIRSRPPRLPRPRPRPVTHPRP	-0.152
RRIRTRPPRLPRPRPRPTAYPRP	-0.0821

Sequence	shrunken log2 fold change
RRIRSRPPRLPRPRPRPRPSPRP	0.439
RRIRFRPPRLPRPRPRPKYYPRP	-0.386
RRIRLRPPRLPRPRPRPSPRPRP	0.307
RRIRWRPPRLPRPRPRPGAFPRP	0.3
RRIRIRPPRLPRPRPRPLGCPRP	-0.0574
RRIRKRPPRLPRPRPRPGRLPRP	0.299
RRIRSRPPRLPRPRPRPFNWPRP	0.0339
RRIRNRPPRLPRPRPRPIQSPRP	-0.216
RRIRGRPPRLPRPRPRPQEHPRP	0.146
RRIRKRPPRLPRPRPRPTHFPRP	-0.105
RRIRERPPRLPRPRPRPRCFPRP	-0.128
RRIRHRPPRLPRPRPRPMRWPRP	0.396
RRIRTRPPRLPRPRPRPKYYPRP	-0.54
RRIRCRPPRLPRPRPRPSKHPRP	-0.553
RRIRMRPPRLPRPRPRPSPYPRP	-0.0611
RRIRTRPPRLPRPRPRPQEDPRP	-0.01
RRIRVRPPRLPRPRPRPWTYPRP	-1.3
RRIRHRPPRLPRPRPRPYGTPRP	-1.41
RRIRHRPPRLPRPRPRPTWWPRP	0.368
RRIRNRPPRLPRPRPRPRRWPRP	0.701
RRIRVRPPRLPRPRPRPSDTPRP	-0.54
RRIRVRPPRLPRPRPRPRYRPRP	-0.0212
RRIRKRPPRLPRPRPRPNMPPRP	0.145
RRIRNRPPRLPRPRPRPYIWPRP	-0.588
RRIRFRPPRLPRPRPRPSPLPRP	-0.0981

Sequence	shrunken log2 fold change
RRIRPRPPRLPRPRPRPIAWPRP	0.266
RRIRFRPPRLPRPRPRPREMPRP	0.286
RRIRARPPRLPRPRPRPDPIPRP	-0.521
RRIRRRPPRLPRPRPRPVEVPRP	0.057
RRIRQRPPRLPRPRPRPRYRPRP	-0.419
RRIRRRPPRLPRPRPRPQDTPRP	-0.321
RRIRYRPPRLPRPRPRPQGYPRP	-0.516
RRIRLRPPRLPRPRPRPVGSPRP	-0.165
RRIRERPPRLPRPRPRPPSKPRP	-0.197
RRIRGRPPRLPRPRPRPRFEPRP	0.881
RRIRVRPPRLPRPRPRPSNSPRP	-0.826
RRIRHRPPRLPRPRPRPDMNPRP	-0.178
RRIRVRPPRLPRPRPRPKSEPRP	0.0185
RRIRKRPPRLPRPRPRPSYIPRP	-0.136
RRIRRRPPRLPRPRPRPTFVPRP	0.998
RRIRERPPRLPRPRPRPYHSPRP	-0.133
RRIRVRPPRLPRPRPRPTVWPRP	0.408
RRIRYRPPRLPRPRPRPWNAPRP	-0.397
RRIRFRPPRLPRPRPRPSQAPRP	-0.0595
RRIRCRPPRLPRPRPRPDYWPRP	-0.437
RRIRWRPPRLPRPRPRPCLTPRP	-0.00541
RRIRSRPPRLPRPRPRPCVAPRP	0.0901
RRIRQRPPRLPRPRPRPDCAPRP	0.0476
RRIRYRPPRLPRPRPRPKSEPRP	-0.0489
RRIRPRPPRLPRPRPRPGPIPRP	0.148

Sequence	shrunken log2 fold change
RRIRYRPPRLPRPRPRPNKYPRP	-0.908
RRIRIRPPRLPRPRPRPSWWPRP	-0.059
RRIRGRPPRLPRPRPRPAPPPRP	1.07
RRIRGRPPRLPRPRPRPDFDPRP	0.612
RRIRERPPRLPRPRPRPSWIPRP	-0.0746
RRIRLRPPRLPRPRPRPKVGPRP	0.109
RRIRCRPPRLPRPRPRPEFPPRP	0.278
RRIRHRPPRLPRPRPRPKHIPRP	-0.413
RRIRPRPPRLPRPRPRPKQQPRP	0.214
RRIRWRPPRLPRPRPRPKWAPRP	0.507
RRIRLRPPRLPRPRPRPILSPRP	-0.0305
RRIRFRPPRLPRPRPRPFIPPRP	-0.823
RRIRDRPPRLPRPRPRPSIFPRP	-0.049
RRIRARPPRLPRPRPRPQCVPRP	0.0695
RRIRKRPPRLPRPRPRPKCCPRP	0.0349
RRIRQRPPRLPRPRPRPDKPPRP	-0.214
RRIRERPPRLPRPRPRPLHNPRP	-0.388
RRIRKRPPRLPRPRPRPTEPPRP	-0.0305
RRIRQRPPRLPRPRPRPPLSPRP	0.0729
RRIRQRPPRLPRPRPRPDVVPRP	-0.01
RRIRQRPPRLPRPRPRPWIHPRP	-0.103
RRIRARPPRLPRPRPRPPRTPRP	1.12
RRIRCRPPRLPRPRPRPVEAPRP	0.338
RRIRQRPPRLPRPRPRPRKGPRP	0.353
RRIRHRPPRLPRPRPRPYGYPRP	-0.22
